For this test, the target named is Lym-1 antigen (HLA-Dr10) on Raji cells (human). Description: avidity constant, Scatchard plot analysis on the target tumor cell line (Raji).

B1: Lym-1 (antibody, V domains shown)
VH: QLKESGPGLVAPSQSLSITCTISGFSLTSYGVHWVRQPPGKGLEWLVVIWSDGSTTYNSALKSRLSISKDNSKSQVFLKMNSLQTDDTAIYYCASHYGSTLAFASWGHGTLVTVSA
VL: DIQMTQSPASLSASVGETVTIICRASVNIYSYLAWYQQKQGKSPQLLVYNAKILAEGVPSRFSGSGSGTQFSLKINSLQPEDFGSYYCQHHYGTFTFGSGTKLEIK
Consider B1, for which the Ka worked out at 4.02e+08 M⁻¹.

The values above are taken from patent US20200016201A1, “CHIMERIC ANTIGEN RECEPTORS AND COMPOSITIONS AND METHODS OF USE THEREOF” (published 2020).
